In patent US7074905 one finds ELISA Readings (Absorbance), DO11.10 IL-2 Released (pg/well) and Absorbance data, which are given here for three substances.

The target in assay [1] is soluble sc-DR2/MBP-Cκ fusion molecule (human kappa constant domain) from pDRHK-transfected CHO cells (human). Briefly: sandwich ELISA, anti-human kappa capture, L243-HRP probe; cell line CHOE 12. In general terms: In an ELISA, binding on a coated surface is turned into a signal by an enzyme label.
Assay [2] shares this target. Briefly: sandwich ELISA, anti-human kappa capture, L243-HRP probe; cell line CHOA5.
Assay [3] shares this target. Briefly: sandwich ELISA, L227 capture, L243-HRP probe; cell line CHOE 12.
For assay [4] the target is unchanged. In words: sandwich ELISA, L227 capture, L243-HRP probe; cell line CHOA5.
For assay [5], the target named is soluble sc-IA^d/OVA produced in SF9 insect cells (baculovirus) (murine). In words: cell-based or functional assay.
Assay [6] addresses sc-IA^d/gD (sc-IA^d fusion protein carrying the gD 246-261 peptide), from insect cells (HSV-1; murine). Briefly: cell-based or functional assay.
In assay [7] the target is sc-IA^d/OVA-Cκ fusion molecule (sc-IA^d/OVA fused to the mouse kappa constant domain), from pIADK-transfected NSO cells (murine; mouse). Briefly: cell-based or functional assay.
Assay [8] concerns the target soluble sc-IA^d/OVA produced in SF9 insect cells (baculovirus) (murine). Briefly: IA^d-specific sandwich ELISA, M5/114 capture, biotin-AMS-32.1 probe; sc-IA^d/OVA from insect cell culture (positive control).
In assay [9] the target is soluble sc-IA^d/OVA secreted by SCE1-transfected NSO cells (murine). In words: IA^d-specific sandwich ELISA, M5/114 capture, biotin-AMS-32.1 probe; undiluted culture supernatant of E10 (SCE1 transfectant).
Assay [10] shares this target. Briefly: IA^d-specific sandwich ELISA, M5/114 capture, biotin-AMS-32.1 probe; undiluted culture supernatant of E11 (SCE1 transfectant).

Sequence of soluble sc-DR2/MBP-Cκ fusion molecule (human kappa constant domain) from pDRHK-transfected CHO cells (human) (P02686 other isoform, or with tags, fused parts or gaps): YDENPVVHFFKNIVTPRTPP

Take L243 mAb (ATCC HB-55) (antibody): the ELISA Readings (Absorbance) in assay [1] was 1.06; in assay [2], 1.45; in assay [3], 0.245; in [4], 0.434.

As for “T-cell receptor of the murine T-cell hybridoma DO11.10 (TCR)”, the DO11.10 IL-2 Released (pg/well) in assay [5] turned out to be 528 pg/well; in assay [6] it was 0 pg/well; in [7], 500 pg/well.

Regarding “anti-IA^d mAb AMS-32.1 (PharMingen) (antibody)”, the values for the Absorbance in [8], in assay [9] and in assay [10] were 2.44, 0.781 and 0.96, respectively.
